The supplement of paper PMC5998384

Key:
[1] = test system: HeLa Kyoto; test: melting temperature (median over replicates), in situ; higher = more thermally stable
[2] = test system: HeLa Kyoto; test: solubility change mitosis vs G1/S (difference of NP-40 vs SDS log2 ratios) (log2 ratio difference); higher = more soluble in mitosis
[3] = test system: HeLa Kyoto; test: thermal stability score vs G1/S (z-score of summed log2 fold changes over temperatures); higher = more thermally stable than in G1/S
[4] = test system: HeLa Kyoto; test: solubility in G1/S (NP-40 vs SDS abundance) (log2 ratio); higher = more soluble; settings: cell cycle stage: G1/S
[5] = cell cycle stage: early G1 (4.5 h after nocodazole release)
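Wherever melting temperature (median over replicates), in situ is given: HeLa Kyoto cells synchronized by double thymidine or nocodazole block, proteins quantified by TMT10plex mass spectrometry, three independent biological replicates.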
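Wherever solubility change mitosis vs G1/S (difference of NP-40 vs SDS log2 ratios) is given: synchronized HeLa Kyoto cells (double thymidine block for G1/S, nocodazole release for mitosis), protein amounts in NP-40 versus SDS lysates quantified by mass spectrometry, three biological replicates.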
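Wherever solubility in G1/S (NP-40 vs SDS abundance) is given: HeLa Kyoto cells arrested at G1/S by double thymidine block, proteins quantified by TMT10plex mass spectrometry in mild NP-40 versus SDS extracts, three biological replicates.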
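Wherever thermal stability score vs G1/S (z-score of summed log2 fold changes over temperatures) is given: synchronized HeLa Kyoto cells, proteins quantified by TMT10plex mass spectrometry, three biological replicates, mitosis taken 0.5 h after nocodazole release, G1/S directly after double thymidine block.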

## MMEEEELEFVEELEAVLQLTPEVQLAIEQVFPSQDPLDRADFNAVEYINTLFPTEQSLANIDEVVNKIRLKIRRLDDNIRTVVRGQTNVGQDGRQALEEAQKAIQQLFGKIKDIKDKAEKSEQMVKEITRDIKQLDHAKRHLTTSITTLNHLHMLAGGVDSLEAMTRRRQYGEVANLLQGVMNVLEHFHKYMGIPQIRQLSERVKAAQTELGQQILADFEEAFPSQGTKRPGGPSNVLRDACLVANILDPRIKQEIIKKFIKQHLSEYLVLFQENQDVAWLDKIDRRYAWIKRQLVDYEEKYGRMFPREWCMAERIAVEFCHVTRAELAKIMRTRAKEIEVKLLLFAIQRTTNFEGFLAKRFSGCTLTDGTLKKLESPPPSTNPFLEDEPTPEMEELATEKGDLDQPKKPKAPDNPFHGIVSKCFEPHLYVYIESQDKNLGELIDRFVADFKAQGPPKPNTDEGGAVLPSCADLFVYYKKCMVQCSQLSTGEPMIALTTIFQKYLREYAWKILSGNLPKTTTSSGGLTISSLLKEKEGSEVAKFTLEELCLICNILSTAEYCLATTQQLEEKLKEKVDVSLIERINLTGEMDTFSTVISSSIQLLVQDLDAACDPALTAMSKMQWQNVEHVGDQSPYVTSVILHIKQNVPIIRDNLASTRKYFTQFCVKFANSFIPKFITHLFKCKPISMVGAEQLLLDTHSLKMVLLDLPSISSQVVRKAPASYTKIVVKGMTRAEMILKVVMAPHEPLVVFVDNYIKLLTDCNTETFQKILDMKGLKRSEQSSMLELLRQRLPAPPSGAESSGSLSLTAPTPEQESSRIRKLEKLIKKRL [VPS53]
[1]; cell cycle stage: G1/S
  melting temperature: 50 °C
[1]; cell cycle stage: mitosis
  melting temperature: 49.7 °C
[2]
  solubility change mitosis (log2): -0.136
[3]; [5]
  thermal stability score: 0.237
[3]; cell cycle stage: mitosis
  thermal stability score: 1.04
[4]
  solubility in G1/S (log2): 0.196

## MSENSSDSDSSCGWTVISHEGSDIEMLNSVTPTDSCEPAPECSSLEQEELQALQIEQGESSQNGTVLMEETAYPALEETSSTIEAEEQKIPEDSIYIGTASDDSDIVTLEPPKLEEIGNQEVVIVEEAQSSEDFNMGSSSSSQYTFCQPETVFSSQPSDDESSSDETSNQPSPAFRRRRARKKTVSASESEDRLVAEQETEPSKELSKRQFSSGLNKCVILALVIAISMGFGHFYGTIQIQKRQQLVRKIHEDELNDMKDYLSQCQQEQESFIDYKSLKENLARCWTLTEAEKMSFETQKTNLATENQYLRVSLEKEEKALSSLQEELNKLREQIRILEDKGTSTELVKENQKLKQHLEEEKQKKHSFLSQRETLLTEAKMLKRELERERLVTTALRGELQQLSGSQLHGKSDSPNVYTEKKEIAILRERLTELERKLTFEQQRSDLWERLYVEAKDQNGKQGTDGKKKGGRGSHRAKNKSKETFLGSVKETFDAMKNSTKEFVRHHKEKIKQAKEAVKENLKKFSDSVKSTFRHFKDTTKNIFDEKGNKRFGATKEAAEKPRTVFSDYLHPQYKAPTENHHNRGPTMQNDGRKEKPVHFKEFRKNTNSKKCSPGHDCRENSHSFRKACSGVFDCAQQESMSLFNTVVNPIRMDEFRQIIQRYMLKELDTFCHWNELDQFINKFFLNGVFIHDQKLFTDFVNDVKDYLRNMKEYEVDNDGVFEKLDEYIYRHFFGHTFSPPYGPRSVYIKPCHYSSL [CCPG1]
[1]; cell cycle stage: G1/S
  melting temperature: 53.6 °C
[1]; cell cycle stage: mitosis
  melting temperature: 53.6 °C
[2]
  solubility change mitosis (log2): -0.0492
[3]; [5]
  thermal stability score: 1.39
[3]; cell cycle stage: mitosis
  thermal stability score: 2.71
[4]
  solubility in G1/S (log2): -0.321

## MESSSSSNSYFSVGPTSPSAVVLLYSKELKKWDEFEDILEERRHVSDLKFAMKCYTPLVYKGITPCKPIDIKCSVLNSEEIHYVIKQLSKESLQSVDVLREEVSEILDEMSHKLRLGAIRFCAFTLSKVFKQIFSKVCVNEEGIQKLQRAIQEHPVVLLPSHRSYIDFLMLSFLLYNYDLPVPVIAAGMDFLGMKMVGELLRMSGAFFMRRTFGGNKLYWAVFSEYVKTMLRNGYAPVEFFLEGTRSRSAKTLTPKFGLLNIVMEPFFKREVFDTYLVPISISYDKILEETLYVYELLGVPKPKESTTGLLKARKILSENFGSIHVYFGDPVSLRSLAAGRMSRSSYNLVPRYIPQKQSEDMHAFVTEVAYKMELLQIENMVLSPWTLIVAVLLQNRPSMDFDALVEKTLWLKGLTQAFGGFLIWPDNKPAEEVVPASILLHSNIASLVKDQVILKVDSGDSEVVDGLMLQHITLLMCSAYRNQLLNIFVRPSLVAVALQMTPGFRKEDVYSCFRFLRDVFADEFIFLPGNTLKDFEEGCYLLCKSEAIQVTTKDILVTEKGNTVLEFLVGLFKPFVESYQIICKYLLSEEEDHFSEEQYLAAVRKFTSQLLDQGTSQCYDVLSSDVQKNALAACVRLGVVEKKKINNNCIFNVNEPATTKLEEMLGCKTPIGKPATAKL [GNPAT]
[1]; cell cycle stage: G1/S
  melting temperature: 53.4 °C
[1]; cell cycle stage: mitosis
  melting temperature: 53.7 °C
[2]
  solubility change mitosis (log2): -0.163
[3]; [5]
  thermal stability score: -0.31
[3]; cell cycle stage: mitosis
  thermal stability score: -0.298
[4]
  solubility in G1/S (log2): -0.227
